# Target: Smlt3024 (Stenotrophomonas maltophilia K279a) (UniProt B2FJJ5)
# Assay: SEC-MALS; Superdex 200 10/300 GL coupled to a Wyatt MALS detector; isolated proteins and their mixture analysed, peaks checked by SDS-PAGE; dn/dc = 0.185 mL/g
substance,measurement,value
Smlt3025_(86-333) (domain or fragment),stoichiometry N (Smlt3024:Smlt3025 (86-333) ratio),1
